These results are taken from article PMC9973356, “Cryo-EM Structures of AcrD Illuminate a Mechanism for Capturing Aminoglycosides from Its Central Cavity” (mBio, 2023).

Several values for one entry are separate records, joined by “and”; a condition that tells them apart may be missing. Equal entries are not always repeated.

This data set concerns the molecule itself. Briefly: cryo-EM structure; single-particle cryo-EM of 10 µM AcrD in MSP1E3D1 nanodiscs (E. coli total extract lipid; 20 mM Tris-HCl pH 7.5, 100 mM NaCl), no gentamicin; particle ratio of trimer to dimer to monomer approximately 3:5:2.

B1: Escherichia coli acriflavine resistance protein D (AcrD) (natural protein)
chain: MANFFIDRPIFAWVLAILLCLTGTLAIFSLPVEQYPDLAPPNVRVTANYPGASAQTLENTVTQVIEQNMTGLDNLMYMSSQSSGTGQASVTLSFKAGTDPDEAVQQVQNQLQSAMRKLPQAVQNQGVTVRKTGDTNILTIAFVSTDGSMDKQDIADYVASNIQDPLSRVNGVGDIDAYGSQYSMRIWLDPAKLNSFQMTAKDVTDAIESQNAQIAVGQLGGTPSVDKQALNATINAQSLLQTPEQFRDITLRVNQDGSEVRLGDVATVEMGAEKYDYLSRFNGKPASGLGVKLASGANEMATAELVLNRLDELAQYFPHGLEYKVAYETTSFVKASIEDVVKTLLEAIALVFLVMYLFLQNFRATLIPTIAVPVVLMGTFSVLYAFGYSVNTLTMFAMVLAIGLLVDDAIVVVENVERIMSEEGLTPREATRKSMGQIQGALVGIAMVLSAVFVPMAFFGGTTGAIYRQFSITIVAAMVLSVLVAMILTPALCATLLKPLKKGEHHGQKGFFAWFNQMFNRNAERYEKGVAKILHRSLRWIVIYVLLLGGMVFLFLRLPTSFLPLEDRGMFTTSVQLPSGSTQQQTLKVVEQIEKYYFTHEKDNIMSVFATVGSGPGGNGQNVARMFIRLKDWSERDSKTGTSFAIIERATKAFNQIKEARVIASSPPAISGLGSSAGFDMELQDHAGAGHDALMAARNQLLALAAENPELTRVRHNGLDDSPQLQIDIDQRKAQALGVAIDDINDTLQTAWGSSYVNDFMDRGRVKKVYVQAAAPYRMLPDDINLWYVRNKDGGMVPFSAFATSRWETGSPRLERYNGYSAVEIVGEAAPGVSTGTAMDIMESLVKQLPNGFGLEWTAMSYQERLSGAQAPALYAISLLVVFLCLAALYESWSVPFSVMLVVPLGVIGALLATWMRGLENDVYFQVGLLTVIGLSAKNAILIVEFANEMNQKGHDLFEATLHACRQRLRPILMTSLAFIFGVLPMATSTGAGSGGQHAVGTGVMGGMISATILAIYFVPLFFVLVRRRFPLKPRPE
notes: AcrD, E. coli, full length; Seen as trimers, dimers and monomers in the same nanodisc sample; The nanodisc scaffold protein MSP1E3D1 (Sigma-Aldrich) is only a tool; also called AcrD aminoglycoside efflux pump; apo-AcrD
B1: the “stoichiometry N” value is 3 and 2.
